Experimental data reported in publication PMC10442823.

Columns and labels:
[1] = molecular target: His-tagged human FcγRIIIa (V158 allotype), extracellular domain (amino acids 17-208) (human) (UniProt P08637); assay: SPR
[2] = molecular target: His-tagged human FcγRIIIa (F158 allotype), extracellular domain (amino acids 17-208) (human) (UniProt P08637); assay: SPR
[3] = molecular target: His-tagged human FcγRIIIa (V158 allotype), extracellular domain (amino acids 17-208) (human) (UniProt P08637); assay: SPR; Biacore T200; His-tagged FcγRIIIa captured (40 RU) by anti-His antibody on a CM5 chip; Rituxan flowed over, HEPES-EP running buffer; KD from steady state; three independent runs

Kd [1]	Kd [2]	Kd [3]	Substance
12 nM	54.4 nM		rituximab (Rx), plant-produced, co-expressed with LmSTT3D
		263 nM	mammalian cell produced rituximab (Rituxan) (antibody)
262 nM			mammalian cell produced rituximab (Rituxan)

The remaining lines, values behind:

Substance	Kd [1]	Kd [2]	Kd [3]
rituximab (Rx), plant-produced, expressed alone	18 nM	66.6 nM	
rituximab (Rx), plant-produced, co-expressed with LdOST	13 nM	50.1 nM	
